Assays:
[1] = target: T1, recombinant His-tagged 6xEMPD (6 times repeated EMPD of mouse mIgE) (Mus musculus (mouse), membrane IgE …); experiment: SPR
T1 chain: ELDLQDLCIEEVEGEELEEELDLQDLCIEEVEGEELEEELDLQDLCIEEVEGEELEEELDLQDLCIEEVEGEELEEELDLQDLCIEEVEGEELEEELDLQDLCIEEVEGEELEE

[2] = target: T1, recombinant His-tagged 6xEMPD (6 times …); experiment: ELISA

B1: mAbA9, mouse monoclonal anti-mouse EMPD antibody of γ1 isotype (antibody, V domains shown)
VH: EVQLVESGGGLVQPGGSLRLSCATSGFTFTDYYMTWVRQPPGKALEWLGFIRNKANGYTTEYSASVKGRFTVSRDNSQSILYLQMNTLRAEDSATYYCASPIYYGSPSWLWTYWGQGTSVTVSS
VL: QIVLTQSPAIMAASLGQKVTMTCSASSSVSSSYLHWYQQKSGASPKPLIHRTSNLASGVPARFSGSGSGTSYSLTISSVEAEDDATYYCQQWSGYPLTFGAGTKLELK
[1]
  Kd: 7.4 nM
[2]
  % competition at 10-fold molar excess of 6xEMPD: 43%

From PMC2959155 (Journal of immunology (Baltimore, Md. : 1950), 2008)
